The subject of the data set is ATP. Nature of the data set: switch fluorescence ratio, 500 uM ATP over buffer (Cy3 cluster intensity, sum of 5 cycles each) (fold (ratio)); higher = stronger signal-on switching upon ATP binding; sequences stand for … in TCGTCGGCAGCGTCAGATGTGTATAAGAGACAGTTTTTTTTTTTTTTTTTTTTTTTTT…TC. The conditions noted are these: aptamer strand: ATP DNA aptamer (quencher-CACCTGGGGGAGTATTGCGGAGGAAGG + anchor), 100 nM annealed; ATP concentration: 500 uM. The procedure, abridged: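 The fluorescence ratio divides summed target-cycle Cy3 intensity by summed buffer-cycle Cy3 intensity for each cluster and is averaged per switch-domain sequence. Cy3-labelled switching-strand clusters on a modified Illumina MiSeq flow-cell were annealed to 100 nM quencher-labelled ATP aptamer, then imaged in selection buffer and again after 15 min with 500 uM ATP at 22 °C. Five such cycles were run, with NaOH stripping and re-annealing between them, and clusters outside 100-1000 RFU were excluded.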

± gives the standard deviation of the averaged measurements.
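Also: ATP exposure 15 min at 22 °C before imaging.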

Take ACGTTGGCGG: the switch fluorescence ratio came out at 1 ± 0.013.

Take TTCTTTACAC: the switch fluorescence ratio was determined as 1.039 ± 0.0025.

For the sequence TTTATTAAGG, the switch fluorescence ratio was 1 ± 0.023. As for TGTATATAGG, the figure is 0.955 ± 0.021; as for TGGTAATGGA, 0.958 ± 0.046; as for TAAAACGCGT, 1.68 ± 0.94. Take GTTTTATTCT: the switch fluorescence ratio was found to be 1 ± 0.023. For the sequence AATAAGGGAT, the switch fluorescence ratio worked out at 1.01 ± 0.045.

Turning to AGGAGGAGTT, the switch fluorescence ratio came out at 1.01 ± 0.053. With CGGGTACCAG, the switch fluorescence ratio stood at 1.01 ± 0.043. As for TTATCTGGGA, the switch fluorescence ratio came out at 0.9995 ± 0.0079. For CAGGGGCCAA, the switch fluorescence ratio was 0.979 ± 0.017.

Take CTGATGGGCT: the switch fluorescence ratio came to 0.972 ± 0.029.

Consider AGCAGGAAGG, for which the switch fluorescence ratio is 0.9956 ± 0.0041. ATGTTAGACT: the switch fluorescence ratio came out at 1.021 ± 0.0071. Regarding CGTTTAAATC, the switch fluorescence ratio is 0.986 ± 0.013. The result for GGCCGGCCAG reads 1.01 ± 0.047; that for TAGGATGGTG, 1.03 ± 0.11; that for ATGCGGCTG, 1.04 ± 0.11. Consider GTTTGGAGAA, for which the switch fluorescence ratio came to 1.01 ± 0.034.

Regarding GGGTTCAATC, the switch fluorescence ratio worked out at 1.04 ± 0.014. In the case of TGCCTGGCTG, the switch fluorescence ratio came to 0.99 ± 0.05. The result for CTCGAGTAGT reads 1.04 ± 0.02. As for GGTTTTCTTT, the figure is 1 ± 0.035; as for TGACCGGCTT, 1.05 ± 0.013. As to TCATGCACTG, the switch fluorescence ratio came to 1.05 ± 0.035.

For TCGGTGGGGT, the switch fluorescence ratio came to 0.982 ± 0.0061. Regarding AGATATGAAC, the switch fluorescence ratio is 1.04 ± 0.044. As for CTGGGGGCGA, the figure is 1.04 ± 0.012; as for ATGGTTGGGA, 0.998 ± 0.024; as for TTTTATTTTG, 1.01 ± 0.057. For GGATGTGAAG, the switch fluorescence ratio amounted to 0.9818 ± 0.0027. The result for CAGGGCAGGG reads 0.951 ± 0.028; that for GACTTAGGAA, 1.05 ± 0.072. As for TAATGGGTGC, the figure is 1.06 ± 0.038. Turning to TATTAGGTTT, the switch fluorescence ratio was 0.991 ± 0.018. As for ATACTATTGT, the figure is 1.029 ± 0.0037; as for GGGCCCGGCG, 0.973 ± 0.049. The result for TATATGAGAG reads 0.973 ± 0.017; that for TTTATCTGTG, 0.954 ± 0.019. The result for ACGTAGTCAT reads 1.04 ± 0.03. CCCAATAGTG: the switch fluorescence ratio came out at 1.35 ± 0.042. Turning to TCCTTTGCGT, the switch fluorescence ratio came to 1.55 ± 0.39. As for TTTGATATGG, the figure is 0.999 ± 0.038; as for ACTGGGAAG, 1.05 ± 0.064; as for TGCGGCCCAT, 0.979 ± 0.016.

Turning to CGTTGGAAGC, the switch fluorescence ratio was found to be 0.982 ± 0.018.

As for CTGTTTCGGT, the switch fluorescence ratio amounted to 0.962 ± 0.021. CGGGCCGAGG: the switch fluorescence ratio amounted to 1.02 ± 0.018. As for ATTTGTTGGA, the figure is 0.989 ± 0.04.

With GGTTGTATTT, the switch fluorescence ratio was 0.962 ± 0.06. For the sequence CGATTTAATA, the switch fluorescence ratio came to 1.01 ± 0.051. Turning to GCCAGAGAGG, the switch fluorescence ratio was 1.005 ± 0.0091.

Consider GCGTTTTCGA, for which the switch fluorescence ratio was 1 ± 0.021.

Turning to ACGGTATGGG, the switch fluorescence ratio amounted to 1.07 ± 0.046. For the sequence ATGATATTAG, the switch fluorescence ratio came to 1.004 ± 0.0066. As to AAGGAGTCGG, the switch fluorescence ratio was 0.987 ± 0.044. For ATGACAGAAG, the switch fluorescence ratio turned out to be 1.03 ± 0.05. The result for GCTTTATGGG reads 0.98 ± 0.027; that for CCGGAGGGGA, 1.27 ± 0.18. As for TAAAGGCTGG, the switch fluorescence ratio stood at 1.015 ± 0.0052. As for ACATCGGGGG, the figure is 1.013 ± 0.0089; as for TTTTTGGGCA, 0.99 ± 0.013; as for GATGTAGACT, 0.9818 ± 0.0033. On to TAGCGGTTCG, for which the switch fluorescence ratio came to 1.01 ± 0.034. As for GGATTATCTC, the figure is 1.015 ± 0.0044; as for TAGATTTGAT, 0.9664 ± 0.0028; as for GCGCTTGTTG, 0.998 ± 0.013.

As to GCGGACGGGT, the switch fluorescence ratio is 0.969 ± 0.019.

For the sequence GGGGGGTCCT, the switch fluorescence ratio stood at 1 ± 0.018.

As to GATTAGAAGG, the switch fluorescence ratio was 1 ± 0.026. As for TACGGGGAGT, the figure is 0.998 ± 0.026; as for TGCACAGGCT, 1.119 ± 0.0062; as for TTTACGGTTC, 1.03 ± 0.054.

Take AGGGGAGTAA: the switch fluorescence ratio was 0.996 ± 0.023. In the case of TTTTTTGCTT, the switch fluorescence ratio worked out at 0.989 ± 0.038. CCTAGTTCGG: the switch fluorescence ratio came to 0.997 ± 0.027.

For the sequence ACATGGGCGT, the switch fluorescence ratio is 0.977 ± 0.036.

Take GATTTCATCT: the switch fluorescence ratio worked out at 0.995 ± 0.032. As for GTGTTAGTAC, the figure is 0.984 ± 0.056; as for AGTGGCATGT, 0.986 ± 0.012.

Regarding GGGTATGCGT, the switch fluorescence ratio was found to be 0.975 ± 0.026. The result for TTTAGTTAAG reads 0.945 ± 0.038.

As for ATGGAAGCTA, the switch fluorescence ratio is 1.02 ± 0.013.

For GGGATTAGGA, the switch fluorescence ratio was 0.995 ± 0.052.

Take CTCGGGGTGC: the switch fluorescence ratio was found to be 1.036 ± 0.004. Regarding GGAGATGCTA, the switch fluorescence ratio came to 0.9616 ± 0.0059. As to ACAGAGAAAT, the switch fluorescence ratio was determined as 1.03 ± 0.036.

Regarding GTGTGTTCTT, the switch fluorescence ratio stood at 1.014 ± 0.008.

ATTATAAAAC: the switch fluorescence ratio came to 1.03 ± 0.045. As for TTATTTATTG, the figure is 0.99 ± 0.016; as for AATGCTCGTA, 1.01 ± 0.023; as for TGAGGTCCCA, 1.01 ± 0.014. The result for TTTTTTTCAC reads 0.953 ± 0.058; that for AGATTAGGGG, 1.04 ± 0.041; that for ACTGGAGGGT, 1.02 ± 0.044. With GCGCTCAGAT, the switch fluorescence ratio came out at 1.02 ± 0.028. In the case of GAACGGGGGA, the switch fluorescence ratio is 0.988 ± 0.035. As for TGGGAAGAGA, the figure is 1.02 ± 0.018; as for TGAGCGTGAG, 1.01 ± 0.015.

Turning to CGTGTATTCG, the switch fluorescence ratio was 1.01 ± 0.031.

For GGTCATAGGT, the switch fluorescence ratio worked out at 0.994 ± 0.022. Consider CCAGCGAATG, for which the switch fluorescence ratio amounted to 1.05 ± 0.028. The result for GCAAGATTCA reads 1 ± 0.021; that for TTGCCGTTCA, 1.02 ± 0.013. The result for TGGGTAAACG reads 1.023 ± 0.0035; that for ACAGGGATTT, 1.03 ± 0.041. As to GAAAGGTTTT, the switch fluorescence ratio was 0.9729 ± 0.0055. The result for TTTATGTAAG reads 0.988 ± 0.065; that for CGTATTTTGG, 0.986 ± 0.032; that for TTTATATACG, 0.991 ± 0.017. The result for GGGACATGTA reads 0.98 ± 0.022; that for ACGCCCGAAC, 1.452 ± 0.013; that for AATGCGGTTC, 0.9709 ± 0.0026. Consider TATTGAGAGC, for which the switch fluorescence ratio turned out to be 1.01 ± 0.064. As for CGGACTTTG, the figure is 0.999 ± 0.026. As for ATAAATGATA, the figure is 1 ± 0.049; as for TTGCGGCGTG, 0.956 ± 0.024; as for GGGGGAGATG, 0.992 ± 0.028. As for CGCACAGCAC, the figure is 1.59 ± 0.023.

These data come from the supplement of paper PMC10126150.
